# According to article PMC5402393, “Interactions of AMTN, ODAM and SCPPPQ1 proteins of a specialized basal lamina that attaches epithelial cells to tooth mineral” (Scientific Reports, 2017):
# B1: recombinant human AMTN, purified, His-tag cleaved (natural protein, UniProt Q6UX39 17-209, looked up)
# chain: LPQLKPALGLPPTKLAPDQGTLPNQQQSNQVFPSLSLIPLTQMLTLGPDLHLLNPAAGMTPGTQTHPLTLGGLNVQQQLHPHVLPIFVTQLGAQGTILSSEELPQIFTSLIIHSLFPGGILPTSQAGANPDVQDGSLPAGGAGVNPATQGTPAGRLPTPSGTDDDFAVTTPAGIQRSTHAIEEATTESANGIQ
# notes: ~21 kDa; also called hAMTN; source: E. coli BL21(DE3)-star, purified (Ni-NTA, TEV cleavage, S200 gel filtration); not shown: His6, N-terminal, cleaved
# B2: recombinant human ODAM, purified, His-tag cleaved (natural protein, UniProt A1E959 16-279, looked up)
# chain: APLIPQRLMSASNSNELLLNLNNGQLLPLQLQGPLNSWIPPFSGILQQQQQAQIPGLSQFSLSALDQFAGLLPNQIPLTGEASFAQGAQAGQVDPLQLQTPPQTQPGPSHVMPYVFSFKMPQEQGQMFQYYPVYMVLPWEQPQQTVPRSPQQTRQQQYEEQIPFYAQFGYIPQLAEPAISGGQQQLAFDPQLGTAPEIAVMSTGEEIPYLQKEAINFRHDSAGVFMPSTSPKPSTTNVFTSAVDQTITPELPEEKDKTDSLREP
# notes: ~32 kDa; also called hODAM; source: E. coli BL21(DE3)-star, purified (Ni-NTA, TEV cleavage, Superose 6 gel filtration); not shown: His6, N-terminal, cleaved
# Key:
# [1] = target: the molecule itself; test: SEC; Superose 6 GL 10/300 for ODAM, S200 for AMTN; 50 mM PB pH 7.4; purified recombinant human proteins, His-tag cleaved; self-association
# [2] = target: B2; test: circular dichroism; far-UV CD (180-250 nm) of purified hODAM, hAMTN and their mixture in 50 mM PB pH 7.2; change of secondary structure on mixing; settings: both partners purified
Binder,stoichiometry N [1],binding result [2]
B1,5 subunits,binds
B2,12 to 13 subunits,–
